Experimental findings from patent US20030049211A1 (published 2003) are described below.

B1: chimeric #23-57-137-1 antibody with L-chain kappa chain C-region (antibody, V domains shown)
VH: EVQLVESGGDLVKPGGSLKLSCAASGFTFSSYGMSWIRQTPDKRLEWVATISSGGSYTYYPDSVKGRFTISRDNAKNTLYLQMSSLKSEDTAMFYCARQTTMTYFAYWGQGTLVTVSA
VL: QLVLTQSSSASFSLGASAKLTCTLSSQHSTYTIEWYQQQPLKPPKYVMDLKQDGSHSTGDGIPDRFSGSSSGADRYLSISNIQPEDEAMYICGVGDTIKEQFVYVFGGGTKVTVLG
notes: Mouse V-regions joined to human H-chain C-region Cgamma1 and human kappa C-region (from plasmid HEF-PM1k-gk); expressed in COS-7 cells; also called chimeric antibody; MBC1HcDNA/pCOS1 and MBC1L(κ)/neo
B2: chimeric #23-57-137-1 antibody with L-chain lambda chain C-region (antibody, V domains shown)
VH: EVQLVESGGDLVKPGGSLKLSCAASGFTFSSYGMSWIRQTPDKRLEWVATISSGGSYTYYPDSVKGRFTISRDNAKNTLYLQMSSLKSEDTAMFYCARQTTMTYFAYWGQGTLVTVSA
VL: QLVLTQSSSASFSLGASAKLTCTLSSQHSTYTIEWYQQQPLKPPKYVMDLKQDGSHSTGDGIPDRFSGSSSGADRYLSISNIQPEDEAMYICGVGDTIKEQFVYVFGGGTKVTVLG
notes: Mouse V-regions joined to human H-chain C-region Cgamma1 and human lambda C-region (isotype Mcg+Ke+Oz-, EMBL X57819); expressed in COS-7 cells; also called chimeric antibody; MBC1HcDNA/pCOS1 and MBC1L(λ)/neo
B3: humanized #23-57-137-1 antibody having L-chain version "s" (antibody, V domains shown)
VH: QVQLVESGGGVVQPGRSLRLSCAASGFTFSSYGMSWVRQAPGKGLEWVATISSGGSYTYYPDSVKGRFTISRDNSKNTLYLQMNSLRAEDTAVYYCARQTTMTYFAYWGQGTLVTVSS
VL: QLVLTQSPSASASLGASVKLTCTLSSQHSTYTIEWYQQQPEKGPKYVMDLKQDGSHSTGDGIPDRFSGSSSGAERYLTISSLQSEDEADYICGVGDTIKEQFVYVFGGGTKLTVLG
notes: Humanized H-chain version a with human Cgamma1; human lambda C-region; COS-7 expressed; also called hMBC1HcDNA/pCOS1 and hMBC1Lsλ/pCOS1
B4: mouse FR1,2/human FR3,4 hybrid antibody, L-chain m/hMBC1Laλ (antibody, V domains shown)
VH: QVQLVESGGGVVQPGRSLRLSCAASGFTFSSYGMSWVRQAPGKGLEWVATISSGGSYTYYPDSVKGRFTISRDNSKNTLYLQMNSLRAEDTAVYYCARQTTMTYFAYWGQGTLVTVSS
VL: QLVLTQSSSASFSLGASAKLTCTLSSQHSTYTIEWYQQQPLKPPKYVMDLKQDGSHSTGDGIPDRFSGSSSGAERYLTISSLQSEDEADYYCGVGDTIKEQFVYVFGGGTKLTVL
notes: H-chain from hMBC1HcDNA/pCOS1 (humanized version a, human Cgamma1); human lambda C-region
B5: humanized #23-57-137-1 antibody having L-chain version "j" (antibody, V domains shown)
VH: QVQLVESGGGVVQPGRSLRLSCAASGFTFSSYGMSWVRQAPGKGLEWVATISSGGSYTYYPDSVKGRFTISRDNSKNTLYLQMNSLRAEDTAVYYCARQTTMTYFAYWGQGTLVTVSS
VL: QLVLTQSPSASASLGASVKLTCTLSSQHSTYTIEWYQQQPEKGPKYLMDLKQDGSHSTGDGIPDRFSGSSSGAERYLTISSLQSEDEADYYCGVGDTIKEQFVYVFGGGTKLTVLG
notes: Humanized H-chain version a with human Cgamma1; human lambda C-region; COS-7 expressed; also called hMBC1HcDNA/pCOS1 and hMBC1Ljλ/pCOS1
B6: humanized #23-57-137-1 antibody having L-chain version "o" (antibody, V domains shown)
VH: QVQLVESGGGVVQPGRSLRLSCAASGFTFSSYGMSWVRQAPGKGLEWVATISSGGSYTYYPDSVKGRFTISRDNSKNTLYLQMNSLRAEDTAVYYCARQTTMTYFAYWGQGTLVTVSS
VL: QLVLTQSPSASASLGASVKLTCTLSSQHSTYTIEWYQQQPEKGPRYVMDLKQDGSHSTGDGIPDRFSGSSSGAERYLTISSLQSEDEADYYCGVGDTIKEQFVYVFGGGTKLTVLG
notes: Humanized H-chain version a with human Cgamma1; human lambda C-region; COS-7 expressed; also called hMBC1HcDNA/pCOS1 and hMBC1Loλ/pCOS1
B7: humanized #23-57-137-1 antibody having L-chain version "q" (antibody, V domains shown)
VH: QVQLVESGGGVVQPGRSLRLSCAASGFTFSSYGMSWVRQAPGKGLEWVATISSGGSYTYYPDSVKGRFTISRDNSKNTLYLQMNSLRAEDTAVYYCARQTTMTYFAYWGQGTLVTVSS
VL: QLVLTQSPSASASLGASVKLTCTLSSQHSTYTIEWYQQQPEKGPKYLMDLKQDGSHSTGDGIPDRFSGSSSGAERYLTISSLQSEDEADYICGVGDTIKEQFVYVFGGGTKLTVLG
notes: Humanized H-chain version a with human Cgamma1; human lambda C-region; COS-7 expressed (also CHO); also called hMBC1HcDNA/pCOS1 and hMBC1Lqλ/pCOS1
B8: humanized #23-57-137-1 antibody having L-chain version "t" (antibody, V domains shown)
VH: QVQLVESGGGVVQPGRSLRLSCAASGFTFSSYGMSWVRQAPGKGLEWVATISSGGSYTYYPDSVKGRFTISRDNSKNTLYLQMNSLRAEDTAVYYCARQTTMTYFAYWGQGTLVTVSS
VL: QLVLTQSPSASASLGASVKLTCTLSSQHSTYTIEWYQQQPEKGPRYVMDLKQDGSHSTGDGIPDRFSGSSSGAERYLTISSLQSEDEADYICGVGDTIKEQFVYVFGGGTKLTVLG
notes: Humanized H-chain version a with human Cgamma1; human lambda C-region; COS-7 expressed; also called hMBC1HcDNA/pCOS1 and hMBC1Ltλ/pCOS1
B9: humanized #23-57-137-1 antibody having L-chain version "l" (antibody, V domains shown)
VH: QVQLVESGGGVVQPGRSLRLSCAASGFTFSSYGMSWVRQAPGKGLEWVATISSGGSYTYYPDSVKGRFTISRDNSKNTLYLQMNSLRAEDTAVYYCARQTTMTYFAYWGQGTLVTVSS
VL: QLVLTQSPSASASLGASVKLTCTLSSQHSTYTIEWYQQQPEKGPKYVMDLKQDGSHSTGDGIPDRFSGSSSGAERYLTISSLQSEDEADYYCGVGDTIKEQFVYVFGGGTKLTVLG
notes: Humanized H-chain version a with human Cgamma1; human lambda C-region; COS-7 expressed; also called hMBC1HcDNA/pCOS1 and hMBC1Llλ/pCOS1
B10: human FR1/mouse FR2,3,4 hybrid antibody, L-chain hmmMBC1L(λ) (antibody, V domains shown)
VH: QVQLVESGGGVVQPGRSLRLSCAASGFTFSSYGMSWVRQAPGKGLEWVATISSGGSYTYYPDSVKGRFTISRDNSKNTLYLQMNSLRAEDTAVYYCARQTTMTYFAYWGQGTLVTVSS
VL: QLVLTQSPSASASLGASVKLTCTLSSQHSTYTIEWYQQQPLKPPKYVMDLKQDGSHSTGDGIPDRFSGSSSGADRYLSISNIQPEDEAMYICGVGDTIKEQFVYVFGGGTKVTVL
notes: H-chain from hMBC1HcDNA/pCOS1 (humanized version a, human Cgamma1); human lambda C-region; also called FR1/FR2 hybrid antibody
B11: antibody having both a humanized H-chain version "a" and a chimeric L-chain (antibody, V domains shown)
VH: QVQLVESGGGVVQPGRSLRLSCAASGFTFSSYGMSWVRQAPGKGLEWVATISSGGSYTYYPDSVKGRFTISRDNSKNTLYLQMNSLRAEDTAVYYCARQTTMTYFAYWGQGTLVTVSS
VL: QLVLTQSSSASFSLGASAKLTCTLSSQHSTYTIEWYQQQPLKPPKYVMDLKQDGSHSTGDGIPDRFSGSSSGADRYLSISNIQPEDEAMYICGVGDTIKEQFVYVFGGGTKVTVLG
notes: Human Cgamma1 H-chain C-region
B12: humanized #23-57-137-1 antibody having L-chain version "m" (antibody, V domains shown)
VH: QVQLVESGGGVVQPGRSLRLSCAASGFTFSSYGMSWVRQAPGKGLEWVATISSGGSYTYYPDSVKGRFTISRDNSKNTLYLQMNSLRAEDTAVYYCARQTTMTYFAYWGQGTLVTVSS
VL: QLVLTQSPSASASLGASVKLTCTLSSQHSTYTIEWYQQQPEKGPRYLMDLKQDGSHSTGDGIPDRFSGSSSGAERYLTISSLQSEDEADYYCGVGDTIKEQFVYVFGGGTKLTVLG
notes: Humanized H-chain version a with human Cgamma1; human lambda C-region; COS-7 expressed; also called hMBC1HcDNA/pCOS1 and hMBC1Lmλ/pCOS1
B13: humanized #23-57-137-1 antibody having L-chain version "r" (antibody, V domains shown)
VH: QVQLVESGGGVVQPGRSLRLSCAASGFTFSSYGMSWVRQAPGKGLEWVATISSGGSYTYYPDSVKGRFTISRDNSKNTLYLQMNSLRAEDTAVYYCARQTTMTYFAYWGQGTLVTVSS
VL: QLVLTQSPSASASLGASVKLTCTLSSQHSTYTIEWYQQQPEKGPRYLMDLKQDGSHSTGDGIPDRFSGSSSGAERYLTISSLQSEDEADYICGVGDTIKEQFVYVFGGGTKLTVLG
notes: Humanized H-chain version a with human Cgamma1; human lambda C-region; COS-7 expressed (also CHO); also called hMBC1HcDNA/pCOS1 and hMBC1Lrλ/pCOS1
B14: mouse monoclonal antibody #23-57-137-1 against human PTHrP (1-34) (antibody, V domains shown)
VH: EVQLVESGGDLVKPGGSLKLSCAASGFTFSSYGMSWIRQTPDKRLEWVATISSGGSYTYYPDSVKGRFTISRDNAKNTLYLQMSSLKSEDTAMFYCARQTTMTYFAYWGQGTLVTVSA
VL: QLVLTQSSSASFSLGASAKLTCTLSSQHSTYTIEWYQQQPLKPPKYVMDLKQDGSHSTGDGIPDRFSGSSSGADRYLSISNIQPEDEAMYICGVGDTIKEQFVYVFGGGTKVTVLG
notes: Mouse antibody from hybridoma culture supernatant; mouse lambda L-chain; H-chain cloned with an MHC-G1 primer

For one test, the target named is T1, human PTHrP (1-34) (human).
T1 construct: Synthetic peptide (Peninsula; Peptide Research Institute), coated on ELISA plates at 1 ug/ml; added at 1 ng/ml final in the cAMP assay; also called parathyroid hormone related peptide (1-34)
The test is described as follows: ELISA, plate coated with human PTHrP (1-34). Here is the method: An ELISA plate for determining antigen-binding ability was prepared as follows. Each well of a 96-well ELISA plate (Maxisorp, NUNC) was coated with 100 μl of a coating buffer containing 1 μg/ml of human PTHrP (1-34) and then blocked with 200 μl of a dilution buffer. Subsequently, each well was added with each of the serial dilutions of the COS-7 cell culture supernatant in which each of the hybrid antibodies and humanized antibodies was expressed, or added with each of the serial dilutions of each of the hybrid antibodies and humanized antibodies in a purified form. The plate was incubated at room temperature and washed with PBS-Tween 20. Subsequently, each well was added with 100 μl of alkaline phosphatase-conjugated goat anti-human IgG antibody (TAGO). The plate was incubated at room temperature and washed with PBS-Tween 20. Subsequently, each well was added with 1 mg/ml of a substrate solution (“Sigma 104”, p-nitrophenylphosphoric acid, SIGMA). The solution was measured on its absorbance at 405 nm using Microplate Reader (Bio Rad).
On to B1, for which the binding result is on record as “binds”.

As to B2, the binding result was “binds”.

As for B3, the binding result is recorded as “binds”.

As to B4, the binding result was “binds”.

Consider B5, for which the binding result is recorded as “binds”.

With B6, the binding result was “binds”.

As for B7, the binding result was “binds”.

As for B8, the binding result is on record as “binds”.

Take B9: the binding result is on record as “binds”.

Take B10: the binding result is “binds”.

Take B11: the binding result is “binds”.

Regarding B12, the binding result is on record as “binds”.

Consider B13, for which the binding result is reported as “binds”.

A further test addresses T1, human PTHrP (1-34). The test is described as follows: solid phase RIA of hybridoma culture supernatant. An excerpt:
The hybridomas thus obtained was suspended into RPMI-1640 medium containing 15% FCS supplemented with OPI-supplement (Sigma), followed by unification of the hybridomas by limiting dilution method.
Take B14: the binding result is “binds”.
